Columns and labels:
Assay in all cases: anti-Flag IP-MS, mES nuclear extract
Impdh2 (mouse) = Impdh2 (mouse) (UniProt P24547)
Spna2 (mouse) = Spna2 (mouse) (UniProt P16546)
Col18a1 (mouse) = Col18a1 (mouse) (UniProt P39061)
Tubb6 (mouse) = Tubb6 (mouse) (UniProt Q922F4)
Tmem48 (mouse) = Tmem48 (mouse) (UniProt Q8VCB1)
Nup188 (mouse) = Nup188 (mouse) (UniProt Q6ZQH8)
Pfn1 (mouse) = Pfn1 (mouse) (UniProt P62962)
Chd4 (mouse) = Chd4 (mouse) (UniProt Q6PDQ2)
Abce1 (mouse) = Abce1 (mouse) (UniProt P61222)
Ruvbl2 (mouse) = Ruvbl2 (mouse) (UniProt Q9WTM5)
Hmga1 (mouse) = Hmga1 (mouse) (UniProt P17095)
Smarcc1 (mouse) = Smarcc1 (mouse) (UniProt P97496)
Ssrp1 (mouse) = Ssrp1 (mouse) (UniProt Q08943)
Uba1 (mouse) = Uba1 (mouse) (UniProt Q02053)
Copa (mouse) = Copa (mouse) (UniProt Q8CIE6)
Smarca4 (mouse) = Smarca4 (mouse) (UniProt Q3TKT4)
Dnaja1 (mouse) = Dnaja1 (mouse) (UniProt P63037)
Ranbp2 (mouse) = Ranbp2 (mouse) (UniProt Q9ERU9)
Smarca1 (mouse) = Smarca1 (mouse) (UniProt Q6PGB8)
Spnb2 (mouse) = Spnb2 (mouse) (UniProt Q62261)
Rangap1 (mouse) = Rangap1 (mouse) (UniProt P46061)
Dars (mouse) = Dars (mouse) (UniProt Q922B2)
Lmna (mouse) = Lmna (mouse) (UniProt P48678)
Dnmt3l (mouse) = Dnmt3l (mouse) (UniProt Q9CWR8)
Hspa5 (mouse) = Hspa5 (mouse) (UniProt P20029)
Aars (mouse) = Aars (mouse) (UniProt Q8BGQ7)
Seh1l (mouse) = Seh1l (mouse) (UniProt Q8R2U0)
Dnmt3b (mouse) = Dnmt3b (mouse) (UniProt O88509)
Ttf1 (mouse) = Ttf1 (mouse) (UniProt Q62187)
Ywhaz (mouse) = Ywhaz (mouse) (UniProt P63101)
Cct8 (mouse) = Cct8 (mouse) (UniProt P42932)
Upf1 (mouse) = Upf1 (mouse) (UniProt Q9EPU0)
Zfp655 (mouse) = Zfp655 (mouse) (UniProt Q9CZP3)
Cul4b (mouse) = Cul4b (mouse) (UniProt A2A432)
Atxn10 (mouse) = Atxn10 (mouse) (UniProt P28658)
Zfp281 (mouse) = Zfp281 (mouse) (UniProt Q99LI5)
Gm1040 (mouse) = Gm1040 (mouse) (UniProt Q3UFM5)
Psmd2 (mouse) = Psmd2 (mouse) (UniProt Q8VDM4)
Pum2 (mouse) = Pum2 (mouse) (UniProt Q80U58)
Hspd1 (mouse) = Hspd1 (mouse) (UniProt P63038)

Sequence of Pfn1 (mouse) (P62962 2-140 limits assumed): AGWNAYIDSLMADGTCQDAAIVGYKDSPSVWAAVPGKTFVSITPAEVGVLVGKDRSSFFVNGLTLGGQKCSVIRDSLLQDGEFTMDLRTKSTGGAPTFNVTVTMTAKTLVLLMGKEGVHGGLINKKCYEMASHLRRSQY
Sequence of Tmem48 (mouse) (Q8VCB1 whole entry): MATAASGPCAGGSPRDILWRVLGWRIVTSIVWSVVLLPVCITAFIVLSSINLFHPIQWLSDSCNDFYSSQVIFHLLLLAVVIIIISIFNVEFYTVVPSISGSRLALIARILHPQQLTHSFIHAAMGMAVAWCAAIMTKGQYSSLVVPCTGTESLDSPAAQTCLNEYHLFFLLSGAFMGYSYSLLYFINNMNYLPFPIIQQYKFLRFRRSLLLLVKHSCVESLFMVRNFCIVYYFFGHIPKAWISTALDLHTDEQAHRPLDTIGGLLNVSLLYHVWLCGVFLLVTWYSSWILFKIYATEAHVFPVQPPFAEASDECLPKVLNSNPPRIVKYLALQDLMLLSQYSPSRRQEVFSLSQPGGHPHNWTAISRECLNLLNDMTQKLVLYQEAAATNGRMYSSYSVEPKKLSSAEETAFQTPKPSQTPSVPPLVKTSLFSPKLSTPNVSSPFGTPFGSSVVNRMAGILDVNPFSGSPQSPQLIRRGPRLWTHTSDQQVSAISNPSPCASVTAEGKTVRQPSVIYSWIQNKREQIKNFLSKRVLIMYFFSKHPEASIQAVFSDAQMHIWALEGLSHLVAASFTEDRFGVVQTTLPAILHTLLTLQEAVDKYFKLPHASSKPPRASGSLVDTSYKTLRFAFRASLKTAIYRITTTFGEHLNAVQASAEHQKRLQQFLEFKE
Sequence of Zfp281 (mouse) (Q99LI5 whole entry): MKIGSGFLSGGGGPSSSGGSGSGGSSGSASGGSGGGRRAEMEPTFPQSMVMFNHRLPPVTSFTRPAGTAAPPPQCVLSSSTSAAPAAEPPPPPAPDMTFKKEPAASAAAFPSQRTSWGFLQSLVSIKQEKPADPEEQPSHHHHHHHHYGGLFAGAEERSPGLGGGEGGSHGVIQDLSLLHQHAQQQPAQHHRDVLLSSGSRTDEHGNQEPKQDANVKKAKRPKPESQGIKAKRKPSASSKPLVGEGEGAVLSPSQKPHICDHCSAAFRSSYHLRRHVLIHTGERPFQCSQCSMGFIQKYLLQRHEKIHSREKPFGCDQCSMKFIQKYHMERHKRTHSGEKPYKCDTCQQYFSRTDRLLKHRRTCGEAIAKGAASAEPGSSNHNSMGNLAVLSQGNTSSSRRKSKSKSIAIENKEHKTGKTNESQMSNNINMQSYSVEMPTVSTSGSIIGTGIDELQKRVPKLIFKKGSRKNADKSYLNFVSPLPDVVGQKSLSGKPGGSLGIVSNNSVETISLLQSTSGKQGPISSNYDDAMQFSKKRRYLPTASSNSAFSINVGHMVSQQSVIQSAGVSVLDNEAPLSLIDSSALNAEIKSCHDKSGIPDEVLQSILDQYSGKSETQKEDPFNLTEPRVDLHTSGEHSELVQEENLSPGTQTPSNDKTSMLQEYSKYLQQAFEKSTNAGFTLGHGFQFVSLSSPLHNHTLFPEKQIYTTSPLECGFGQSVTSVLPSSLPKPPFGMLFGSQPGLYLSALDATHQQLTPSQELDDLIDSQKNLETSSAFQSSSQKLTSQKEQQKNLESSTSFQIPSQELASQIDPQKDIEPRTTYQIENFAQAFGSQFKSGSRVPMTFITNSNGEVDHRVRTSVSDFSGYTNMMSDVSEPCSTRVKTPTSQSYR
Sequence of Rangap1 (mouse) (P46061 2-589 limits assumed): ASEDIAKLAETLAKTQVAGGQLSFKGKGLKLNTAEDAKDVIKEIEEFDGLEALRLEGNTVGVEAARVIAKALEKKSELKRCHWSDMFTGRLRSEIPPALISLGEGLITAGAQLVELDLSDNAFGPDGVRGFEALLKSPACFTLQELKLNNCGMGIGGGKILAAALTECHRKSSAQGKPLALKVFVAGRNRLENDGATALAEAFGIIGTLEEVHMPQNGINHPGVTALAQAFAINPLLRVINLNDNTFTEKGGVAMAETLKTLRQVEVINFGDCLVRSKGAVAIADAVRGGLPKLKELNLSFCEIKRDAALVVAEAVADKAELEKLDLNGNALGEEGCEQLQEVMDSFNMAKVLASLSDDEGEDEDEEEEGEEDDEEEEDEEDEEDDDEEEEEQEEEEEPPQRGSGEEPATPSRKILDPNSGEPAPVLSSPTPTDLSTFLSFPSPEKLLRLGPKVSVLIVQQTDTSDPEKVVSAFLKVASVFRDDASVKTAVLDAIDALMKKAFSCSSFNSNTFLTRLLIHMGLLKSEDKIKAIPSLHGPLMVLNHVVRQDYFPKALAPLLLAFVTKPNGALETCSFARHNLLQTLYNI
Sequence of Upf1 (mouse) (Q9EPU0 whole entry): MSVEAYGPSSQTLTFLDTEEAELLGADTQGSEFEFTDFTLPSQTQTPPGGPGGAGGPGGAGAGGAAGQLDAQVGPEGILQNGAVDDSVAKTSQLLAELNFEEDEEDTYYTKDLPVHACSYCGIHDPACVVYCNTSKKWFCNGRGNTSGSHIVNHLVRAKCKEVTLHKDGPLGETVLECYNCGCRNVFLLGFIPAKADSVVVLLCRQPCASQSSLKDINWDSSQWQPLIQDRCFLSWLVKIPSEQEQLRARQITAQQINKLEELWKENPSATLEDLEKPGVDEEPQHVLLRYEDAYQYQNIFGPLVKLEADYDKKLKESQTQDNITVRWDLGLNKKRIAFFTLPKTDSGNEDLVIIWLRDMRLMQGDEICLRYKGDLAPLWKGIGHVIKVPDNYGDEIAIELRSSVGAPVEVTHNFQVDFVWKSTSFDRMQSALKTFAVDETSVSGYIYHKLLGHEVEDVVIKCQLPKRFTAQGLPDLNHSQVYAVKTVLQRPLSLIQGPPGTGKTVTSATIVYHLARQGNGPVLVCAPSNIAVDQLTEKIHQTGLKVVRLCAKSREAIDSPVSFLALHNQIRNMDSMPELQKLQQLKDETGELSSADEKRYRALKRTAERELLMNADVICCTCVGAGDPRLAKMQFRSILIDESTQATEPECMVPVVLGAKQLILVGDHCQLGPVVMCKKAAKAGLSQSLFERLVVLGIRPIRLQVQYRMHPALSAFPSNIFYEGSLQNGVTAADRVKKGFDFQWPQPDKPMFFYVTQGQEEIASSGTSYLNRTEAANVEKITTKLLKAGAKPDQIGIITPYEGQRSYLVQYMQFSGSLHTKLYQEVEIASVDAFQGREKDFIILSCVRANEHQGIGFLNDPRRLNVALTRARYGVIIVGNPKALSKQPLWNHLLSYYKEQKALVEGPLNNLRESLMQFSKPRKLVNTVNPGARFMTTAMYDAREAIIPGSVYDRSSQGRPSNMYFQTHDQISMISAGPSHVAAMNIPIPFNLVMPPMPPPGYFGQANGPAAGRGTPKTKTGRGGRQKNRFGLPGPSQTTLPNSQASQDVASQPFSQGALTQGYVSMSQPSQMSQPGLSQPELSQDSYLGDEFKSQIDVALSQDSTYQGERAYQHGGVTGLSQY
Sequence of Ssrp1 (mouse) (Q08943 2-708 limits assumed): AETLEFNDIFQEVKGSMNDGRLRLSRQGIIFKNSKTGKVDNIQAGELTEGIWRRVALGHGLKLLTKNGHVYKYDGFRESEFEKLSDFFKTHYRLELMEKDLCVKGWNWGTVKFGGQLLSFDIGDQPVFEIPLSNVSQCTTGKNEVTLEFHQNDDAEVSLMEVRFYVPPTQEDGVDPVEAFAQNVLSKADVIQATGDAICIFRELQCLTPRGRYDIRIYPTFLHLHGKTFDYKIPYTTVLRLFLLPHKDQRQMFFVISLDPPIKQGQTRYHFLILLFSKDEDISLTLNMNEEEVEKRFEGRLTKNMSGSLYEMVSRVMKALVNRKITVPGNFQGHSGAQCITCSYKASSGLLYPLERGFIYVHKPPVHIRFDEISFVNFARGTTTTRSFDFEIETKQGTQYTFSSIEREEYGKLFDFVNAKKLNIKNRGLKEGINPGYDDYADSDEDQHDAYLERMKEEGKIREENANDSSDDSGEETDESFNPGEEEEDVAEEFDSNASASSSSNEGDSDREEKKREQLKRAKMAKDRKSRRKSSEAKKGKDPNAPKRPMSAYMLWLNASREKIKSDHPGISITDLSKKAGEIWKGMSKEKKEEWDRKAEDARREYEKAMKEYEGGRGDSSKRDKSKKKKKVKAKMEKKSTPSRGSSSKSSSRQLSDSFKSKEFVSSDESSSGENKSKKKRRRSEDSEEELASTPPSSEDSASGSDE
Sequence of Dars (mouse) (Q922B2 whole entry): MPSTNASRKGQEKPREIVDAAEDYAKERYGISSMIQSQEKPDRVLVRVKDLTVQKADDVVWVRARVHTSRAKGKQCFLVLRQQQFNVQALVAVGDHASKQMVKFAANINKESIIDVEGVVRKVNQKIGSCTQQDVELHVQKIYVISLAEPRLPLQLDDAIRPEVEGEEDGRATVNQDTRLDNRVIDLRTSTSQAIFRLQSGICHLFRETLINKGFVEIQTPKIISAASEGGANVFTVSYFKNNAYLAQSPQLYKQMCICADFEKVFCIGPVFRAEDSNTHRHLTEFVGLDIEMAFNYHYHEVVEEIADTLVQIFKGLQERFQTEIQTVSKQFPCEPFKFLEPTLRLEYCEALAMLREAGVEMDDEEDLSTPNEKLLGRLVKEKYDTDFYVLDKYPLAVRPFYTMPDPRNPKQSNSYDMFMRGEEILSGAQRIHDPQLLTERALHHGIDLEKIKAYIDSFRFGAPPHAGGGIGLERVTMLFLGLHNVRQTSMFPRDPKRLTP
Sequence of Ywhaz (mouse) (P63101 whole entry): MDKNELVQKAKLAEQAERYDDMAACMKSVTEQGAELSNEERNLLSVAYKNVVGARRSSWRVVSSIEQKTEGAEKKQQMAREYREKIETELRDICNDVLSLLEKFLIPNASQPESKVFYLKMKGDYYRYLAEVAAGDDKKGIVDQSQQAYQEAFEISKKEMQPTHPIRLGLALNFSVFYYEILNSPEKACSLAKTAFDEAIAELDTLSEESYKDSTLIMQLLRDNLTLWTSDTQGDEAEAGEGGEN
Sequence of Hmga1 (mouse) (P17095 2-107 limits assumed): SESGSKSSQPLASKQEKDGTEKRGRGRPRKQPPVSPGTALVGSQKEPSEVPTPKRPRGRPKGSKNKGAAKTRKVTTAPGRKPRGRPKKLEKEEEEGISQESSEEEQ

Substance: 2x Flag tag only (control) (peptide)
- Nucleus peptide (Impdh2 (mouse)): 8 peptides
- Nucleus spectra (Impdh2 (mouse)): 17 spectra
- Nucleus peptide (Spna2 (mouse)): 5 peptides
- Nucleus spectra (Spna2 (mouse)): 9 spectra
- Nucleus peptide (Col18a1 (mouse)): 1 peptides
- Nucleus spectra (Col18a1 (mouse)): 1 spectra
- Nucleus peptide (Tubb6 (mouse)): 1 peptides
- Nucleus spectra (Tubb6 (mouse)): 1 spectra
- Nucleus peptide (Tmem48 (mouse)): 1 peptides
- Nucleus spectra (Tmem48 (mouse)): 1 spectra
- Nucleus peptide (Nup188 (mouse)): 2 peptides
- Nucleus spectra (Nup188 (mouse)): 3 spectra
- Nucleus peptide (Pfn1 (mouse)): 4 peptides
- Nucleus spectra (Pfn1 (mouse)): 9 spectra
- Nucleus peptide (Chd4 (mouse)): 4 peptides
- Nucleus spectra (Chd4 (mouse)): 6 spectra
- Nucleus peptide (Abce1 (mouse)): 3 peptides
- Nucleus spectra (Abce1 (mouse)): 3 spectra
- Nucleus peptide (Ruvbl2 (mouse)): 4 peptides
- Nucleus spectra (Ruvbl2 (mouse)): 10 spectra
- Nucleus peptide (Hmga1 (mouse)): 1 peptides
- Nucleus spectra (Hmga1 (mouse)): 8 spectra
- Nucleus peptide (Smarcc1 (mouse)): 4 peptides
- Nucleus spectra (Smarcc1 (mouse)): 4 spectra
- Nucleus peptide (Ssrp1 (mouse)): 2 peptides
- Nucleus spectra (Ssrp1 (mouse)): 4 spectra
- Nucleus peptide (Uba1 (mouse)): 3 peptides
- Nucleus spectra (Uba1 (mouse)): 5 spectra
- Nucleus peptide (Copa (mouse)): 1 peptides
- Nucleus spectra (Copa (mouse)): 4 spectra
- Nucleus peptide (Smarca4 (mouse)): 2 peptides
- Nucleus spectra (Smarca4 (mouse)): 2 spectra
- Nucleus peptide (Dnaja1 (mouse)): 3 peptides
- Nucleus spectra (Dnaja1 (mouse)): 5 spectra
- Nucleus peptide (Ranbp2 (mouse)): 8 peptides
- Nucleus spectra (Ranbp2 (mouse)): 12 spectra
- Nucleus peptide (Smarca1 (mouse)): 2 peptides
- Nucleus spectra (Smarca1 (mouse)): 3 spectra
- Nucleus peptide (Spnb2 (mouse)): 7 peptides
- Nucleus spectra (Spnb2 (mouse)): 11 spectra
- Nucleus peptide (Rangap1 (mouse)): 0 peptides
- Nucleus spectra (Rangap1 (mouse)): 0 spectra
- Nucleus peptide (Dars (mouse)): 1 peptides
- Nucleus spectra (Dars (mouse)): 2 spectra
- Nucleus peptide (Lmna (mouse)): 1 peptides
- Nucleus spectra (Lmna (mouse)): 3 spectra
- Nucleus peptide (Dnmt3l (mouse)): 2 peptides
- Nucleus spectra (Dnmt3l (mouse)): 4 spectra
- Nucleus peptide (Hspa5 (mouse)): 10 peptides
- Nucleus spectra (Hspa5 (mouse)): 13 spectra
- Nucleus peptide (Aars (mouse)): 3 peptides
- Nucleus spectra (Aars (mouse)): 4 spectra
- Nucleus peptide (Seh1l (mouse)): 2 peptides
- Nucleus spectra (Seh1l (mouse)): 4 spectra
- Nucleus peptide (Dnmt3b (mouse)): 0 peptides
- Nucleus spectra (Dnmt3b (mouse)): 0 spectra
- Nucleus peptide (Ttf1 (mouse)): 1 peptides
- Nucleus spectra (Ttf1 (mouse)): 1 spectra
- Nucleus peptide (Ywhaz (mouse)): 1 peptides
- Nucleus spectra (Ywhaz (mouse)): 6 spectra
- Nucleus peptide (Cct8 (mouse)): 6 peptides
- Nucleus spectra (Cct8 (mouse)): 10 spectra
- Nucleus peptide (Upf1 (mouse)): 2 peptides
- Nucleus spectra (Upf1 (mouse)): 3 spectra
- Nucleus peptide (Zfp655 (mouse)): 0 peptides
- Nucleus spectra (Zfp655 (mouse)): 0 spectra
- Nucleus peptide (Cul4b (mouse)): 0 peptides
- Nucleus spectra (Cul4b (mouse)): 0 spectra
- Nucleus peptide (Atxn10 (mouse)): 4 peptides
- Nucleus spectra (Atxn10 (mouse)): 10 spectra
- Nucleus peptide (Zfp281 (mouse)): 3 peptides
- Nucleus spectra (Zfp281 (mouse)): 5 spectra
- Nucleus peptide (Gm1040 (mouse)): 1 peptides
- Nucleus spectra (Gm1040 (mouse)): 1 spectra
- Nucleus peptide (Psmd2 (mouse)): 1 peptides
- Nucleus spectra (Psmd2 (mouse)): 1 spectra
- Nucleus peptide (Pum2 (mouse)): 1 peptides
- Nucleus spectra (Pum2 (mouse)): 1 spectra
- Nucleus peptide (Hspd1 (mouse)): 5 peptides
- Nucleus spectra (Hspd1 (mouse)): 11 spectra

Substance: human AID containing two tandem Flag tags (Flag-human AID) (from UniProt Q9GZX7 1-198) (enzyme)
- Nucleus peptide (Impdh2 (mouse)): 12 peptides
- Nucleus spectra (Impdh2 (mouse)): 37 spectra
- Nucleus peptide (Spna2 (mouse)): 14 peptides
- Nucleus spectra (Spna2 (mouse)): 28 spectra
- Nucleus peptide (Col18a1 (mouse)): 4 peptides
- Nucleus spectra (Col18a1 (mouse)): 5 spectra
- Nucleus peptide (Tubb6 (mouse)): 3 peptides
- Nucleus spectra (Tubb6 (mouse)): 5 spectra
- Nucleus peptide (Tmem48 (mouse)): 3 peptides
- Nucleus spectra (Tmem48 (mouse)): 4 spectra
- Nucleus peptide (Nup188 (mouse)): 4 peptides
- Nucleus spectra (Nup188 (mouse)): 7 spectra
- Nucleus peptide (Pfn1 (mouse)): 5 peptides
- Nucleus spectra (Pfn1 (mouse)): 21 spectra
- Nucleus peptide (Chd4 (mouse)): 15 peptides
- Nucleus spectra (Chd4 (mouse)): 26 spectra
- Nucleus peptide (Abce1 (mouse)): 7 peptides
- Nucleus spectra (Abce1 (mouse)): 11 spectra
- Nucleus peptide (Ruvbl2 (mouse)): 12 peptides
- Nucleus spectra (Ruvbl2 (mouse)): 31 spectra
- Nucleus peptide (Hmga1 (mouse)): 5 peptides
- Nucleus spectra (Hmga1 (mouse)): 18 spectra
- Nucleus peptide (Smarcc1 (mouse)): 6 peptides
- Nucleus spectra (Smarcc1 (mouse)): 10 spectra
- Nucleus peptide (Ssrp1 (mouse)): 9 peptides
- Nucleus spectra (Ssrp1 (mouse)): 18 spectra
- Nucleus peptide (Uba1 (mouse)): 10 peptides
- Nucleus spectra (Uba1 (mouse)): 18 spectra
- Nucleus peptide (Copa (mouse)): 5 peptides
- Nucleus spectra (Copa (mouse)): 9 spectra
- Nucleus peptide (Smarca4 (mouse)): 5 peptides
- Nucleus spectra (Smarca4 (mouse)): 8 spectra
- Nucleus peptide (Dnaja1 (mouse)): 13 peptides
- Nucleus spectra (Dnaja1 (mouse)): 49 spectra
- Nucleus peptide (Ranbp2 (mouse)): 57 peptides
- Nucleus spectra (Ranbp2 (mouse)): 160 spectra
- Nucleus peptide (Smarca1 (mouse)): 7 peptides
- Nucleus spectra (Smarca1 (mouse)): 14 spectra
- Nucleus peptide (Spnb2 (mouse)): 17 peptides
- Nucleus spectra (Spnb2 (mouse)): 26 spectra
- Nucleus peptide (Rangap1 (mouse)): 10 peptides
- Nucleus spectra (Rangap1 (mouse)): 29 spectra
- Nucleus peptide (Dars (mouse)): 4 peptides
- Nucleus spectra (Dars (mouse)): 6 spectra
- Nucleus peptide (Lmna (mouse)): 6 peptides
- Nucleus spectra (Lmna (mouse)): 13 spectra
- Nucleus peptide (Dnmt3l (mouse)): 4 peptides
- Nucleus spectra (Dnmt3l (mouse)): 10 spectra
- Nucleus peptide (Hspa5 (mouse)): 13 peptides
- Nucleus spectra (Hspa5 (mouse)): 30 spectra
- Nucleus peptide (Aars (mouse)): 10 peptides
- Nucleus spectra (Aars (mouse)): 21 spectra
- Nucleus peptide (Seh1l (mouse)): 5 peptides
- Nucleus spectra (Seh1l (mouse)): 13 spectra
- Nucleus peptide (Dnmt3b (mouse)): 4 peptides
- Nucleus spectra (Dnmt3b (mouse)): 9 spectra
- Nucleus peptide (Ttf1 (mouse)): 3 peptides
- Nucleus spectra (Ttf1 (mouse)): 4 spectra
- Nucleus peptide (Ywhaz (mouse)): 6 peptides
- Nucleus spectra (Ywhaz (mouse)): 17 spectra
- Nucleus peptide (Cct8 (mouse)): 12 peptides
- Nucleus spectra (Cct8 (mouse)): 31 spectra
- Nucleus peptide (Upf1 (mouse)): 5 peptides
- Nucleus spectra (Upf1 (mouse)): 8 spectra
- Nucleus peptide (Zfp655 (mouse)): 4 peptides
- Nucleus spectra (Zfp655 (mouse)): 9 spectra
- Nucleus peptide (Cul4b (mouse)): 4 peptides
- Nucleus spectra (Cul4b (mouse)): 7 spectra
- Nucleus peptide (Atxn10 (mouse)): 10 peptides
- Nucleus spectra (Atxn10 (mouse)): 23 spectra
- Nucleus peptide (Zfp281 (mouse)): 14 peptides
- Nucleus spectra (Zfp281 (mouse)): 49 spectra
- Nucleus peptide (Gm1040 (mouse)): 5 peptides
- Nucleus spectra (Gm1040 (mouse)): 8 spectra
- Nucleus peptide (Psmd2 (mouse)): 5 peptides
- Nucleus spectra (Psmd2 (mouse)): 12 spectra
- Nucleus peptide (Pum2 (mouse)): 2 peptides
- Nucleus spectra (Pum2 (mouse)): 5 spectra
- Nucleus peptide (Hspd1 (mouse)): 16 peptides
- Nucleus spectra (Hspd1 (mouse)): 44 spectra
